B1: MAdCAM antibody Table 1 clone 57 (scFv)
scFv: QVQLVQSGAEVKKPGASVKVSCKASGYTFTSYYMHWVRQAPGQGLEWMGIINPSGGSTSYAQKFQGRVTMTRDTSTSTVYMELSSLRSEDTAVYYCARDSVAGTGGRYYGMDVWGQGTLVTVSSGGGGSGGGGSGGGGSGGGGSDIQMTQSPSSLSASVGDRVTITCRASQGISNYFAWYQQKPGKAPKLLIYAASSLQGGVPSRFSGSGSGTDFTLTISSLQPEDFATYYCQQSYSLPYTFGQGTKLEIK
B2: MAdCAM antibody Table 1 clone 11 (scFv)
scFv: QVQLVQSGAEVKKPGASVKVSCKASGYTFTTYYMHWVRQAPGQGLEWMGGFDPEDGETIYAQKFQGRVTMTRDTSTSTVYMELSSLRSEDTAVYYCARHAVAGAVGAGYYYYGMDVWGQGTMVTVSSGGGGSGGGGSGGGGSGGGGSDIQMTQSPSSLSASVGDRVTITCRASESISNWLAWYQQKPGKAPKLLIYAASTLQSGVPSRFSGSGSGTDFTLTISSLQPEDFATYYCQQSYSVPFTFGPGTKVDIK
B3: MAdCAM antibody Table 1 clone 13 (scFv)
scFv: EVQLLESGGGLVQPGGSLRLSCAASGFTFDDYAMHWVRQAPGKGLEWVSYIDASGTTIYYADSVKGRFTISRDNSKNTLYLQMNSLRAEDTAVYYCAKDQAAAGYWYFDLWGRGTLVTVSSGGGGSGGGGSGGGGSGGGGSDIQMTQSPSSLSASVGDRVTITCQASQDISNYLNWYQQKPGKAPKLLIYKASTLESGVPSRFSGSGSGTDFTLTISSLQPEDFATYYCQQSYSTPITFGQGTRLEIK
B4: MAdCAM antibody Table 1 clone 52 (scFv)
scFv: EVQLLESGGGLVQPGGSLRLSCAASGFTFSNSDMNWVRQAPGKGLEWVAHIWNDGSQKYYADSVKGRFTISRDNSKNTLYLQMNSLRAEDTAVYYCARDRTDPGYSSAMDVWGQGTTVTVSSGGGGSGGGGSGGGGSGGGGSDIQMTQSPSSLSASVGDRVTITCRASQDIRNYLGWYQQKPGKAPKLLIYDASSLETGVPSRFSGSGSGTDFTLTISSLQPEDFATYYCQQATSLPLTFGGGTKVEIK
B5: MAdCAM antibody Table 1 clone 51 (scFv)
scFv: EVQLLESGGGLVQPGGSLRLSCAASGFTFNNYGMNWVRQAPGKGLEWVSRINSDGSSTSYADSVKGRFTISRDNSKNTLYLQMNSLRAEDTAVYYCARGAYYYYYMDVWGQGTLVTVSSGGGGSGGGGSGGGGSGGGGSEIVMTQSPATLSVSPGERATLSCRASQSVSGSYLAWYQQKPGQAPRLLIYATSSRASGIPARFSGSGSGTEFTLTISSLQSEDFAVYYCQQYYSGLTFGQGTKVEIK
B6: MAdCAM antibody Table 1 clone 54 (scFv)
scFv: EVQLLESGGGLVQPGGSLRLSCAASGFTFGDYAMSWVRQAPGKGLEWVAVVSYDGTNKYYADSVKGRFTISRDNSKNTLYLQMNSLRAEDTAVYYCAKDICSSTSCYFDLWGRGTLVTVSSGGGGSGGGGSGGGGSGGGGSDIQMTQSPSSLSASVGDRVTITCRASQNINNYVNWYQQKPGKAPKLLIYDASNLETGVPSRFSGSGSGTDFTLTISSLQPEDFATYYCQQANSFPPTFGQGTRLEIK
B7: MAdCAM antibody Table 1 clone 15 (scFv)
scFv: QVQLVQSGAEVKKPGSSVKVSCKASGYTFTNYYMHWVRQAPGQGLEWMGGIIPIVDRVKYAQKFQGRVTITADESTSTAYMELSSLRSEDTAVYYCAKGRYTVNYYYGMDVWGQGTTVTVSSGGGGSGGGGSGGGGSGGGGSDIQMTQSPSSLSASVGDRVTITCQANQDISNYLNWYQQKPGKAPKLLIYRASKLEAGVPSRFSGSGSGTDFTLTISSLQPEDFATYYCQQSSEIPYSFGQGTKLEIK
B8: MAdCAM antibody Table 1 clone 58 (scFv)
scFv: QVQLVQSGAEVKKPGASVKVSCKASGYTFTGYYMHWVRQAPGQGLEWMGIINPSGGNTKYAQKFQGRVTMTRDTSTSTVYMELSSLRSEDTAVYYCTTADYYYYMDVWGKGTTVTVSSGGGGSGGGGSGGGGSGGGGSDIQMTQSPSSLSASVGDRVTITCRASQGISNYLAWYQQKPGKAPKLLIYAASSLQSGVPSRFSGSGSGTDFTLTISSLQPEDFATYYCQQYYSNADFGQGTKVEIK
B9: MAdCAM antibody Table 1 clone 50 (scFv)
scFv: QVQLVQSGAEVKKPGASVKVSCKASGYTFTSYDINWVRQAPGQGLEWMGWINPNSGTTGYAQKFQGRVTMTRDTSTSTVYMELSSLRSEDTAVYYCARSPYYYYGMDVWGQGTTVTVSSGGGGSGGGGSGGGGSGGGGSDIQMTQSPSSLSASVGDRVTITCRASHFISRWVAWYQQKPGKAPKLLIYAASTLQSGVPSRFSGSGSGTDFTLTISSLQPEDFATYYCQQSYSGISFGPGTKVDIK
B10: MAdCAM antibody Table 1 clone 55 (scFv)
scFv: QVQLVQSGAEVKKPGASVKVSCKASGYTFTSYYMHWVRQAPGQGLEWMGIIDPSGGSTSYAQKFQGRVTMTRDTSTSTVYMELSSLRSEDTAVYYCAREEWSSGGVGYFDYWGQGTLVTVSSGGGGSGGGGSGGGGSGGGGSDIQMTQSPSSLSASVGDRVTITCRASQGISSYLAWYQQKPGKAPKLLIYATSSLQTGVPSRFSGSGSGTDFTLTISSLQPEDFATYYCQQTYSIPITFGQGTRLEIK
B11: MAdCAM antibody Table 1 clone 48 (scFv)
scFv: EVQLLESGGGLVQPGGSLRLSCAASGFTFSDHGMHWVRQAPGKGLEWVSVIYGGESTYYADSVKGRFTISRDNSKNTLYLQMNSLRAEDTAVYYCARDPAVAGGGIFDYWGQGTLVTVSSGGGGSGGGGSGGGGSGGGGSDIQMTQSPSSLSASVGDRVTITCRASQGISNYLAWYQQKPGKAPKLLIYDASNLETGVPSRFSGSGSGTDFTLTISSLQPEDFATYYCQQSYSTCYTFGQGTKLEIK
B12: MAdCAM antibody Table 1 clone 14 (scFv)
scFv: QVQLVQSGAEVKKPGSSVKVSCKASGYTFTDYHIHWVRQAPGQGLEWMGGIVPRSGSTTYAQKFQGRVTITADESTSTAYMELSSLRSEDTAVYYCAKDESSGWYYFDYWGQGTLVTVSSGGGGSGGGGSGGGGSGGGGSDIVMTQSPLSLPVTPGEPASISCRSSQSLLHSNGYNYLDWYLQKPGQSPQLLIYSAYNRASGVPDRFSGSGSGTDFTLKISRVEAEDVGVYYCMQALQTPLTFGQGTKVEIK
B13: MAdCAM antibody Table 1 clone 12 (scFv)
scFv: QVQLVQSGAEVKKPGASVKVSCKASGYTFTGYYMHWVRQAPGQGLEWMGWIGPNSGDTNYAQKFQGRVTMTRDTSTSTVYMELSSLRSEDTAVYYCARDLDHNWYFDLWGRGTLVTVSSGGGGSGGGGSGGGGSGGGGSDIVMTQSPLSLPVTPGEPASISCRSSQSLLHSNGYNYLDWYLQKPGQSPQLLIYSSSNRAPGVPDRFSGSGSGTDFTLKISRVEAEDVGVYYCMQALHIPLTFGGGTKVEIK
B14: MAdCAM antibody Table 1 clone 3 (scFv)
scFv: QVQLVQSGAEVKKPGASVKVSCKASGYPFIGQYLHWVRQAPGQGLEWMGIINPSGGSTSYAQKFQGRVTMTRDTSTSTVYMELSSLRSEDTAVYYCAREGRLSYGMDAWGQGTLVTVSSGGGGSGGGGSGGGGSGGGGSDIQMTQSPSSLSASVGDRVTITCRASQSISSYLAWYQQKPGKAPKLLIYGASTLESGVPSRFSGSGSGTDFTLTISSLQPEDFATYYCQQTWGPPFTFGQGTKLEIK
B15: MAdCAM antibody Table 1 clone 53 (scFv)
scFv: QVQLVQSGAEVKKPGASVKVSCKASGYTFTSYDINWVRQAPGQGLEWMGWMNPNSGNTGYAQKFQGRVTMTRDTSTSTVYMELSSLRSEDTAVYYCAKDSDYSNLLWDYWGQGTLVTVSSGGGGSGGGGSGGGGSGGGGSDIQMTQSPSSLSASVGDRVTITCRASQDITNDLGWYQQKPGKAPKLLIYQASSLESGVPSRFSGSGSGTDFTLTISSLQPEDFATYYCQQSYTIPLTFGQGTKVEIK
B16: MAdCAM antibody Table 1 clone 49 (scFv)
scFv: QVQLVQSGAEVKKPGASVKVSCKASGDTFTGYYIHWVRQAPGQGLEWMGWINPNSGGTNYAQKFQGRVTMTRDTSTSTVYMELSSLRSEDTAVYYCARSGLWLGSYYGMDVWGQGTLVTVSSGGGGSGGGGSGGGGSGGGGSDIQMTQSPSSLSASVGDRVTITCRASQTISIWLAWYQQKPGKAPKLLIYDASTLQSGVPSRFSGSGSGTDFTLTISSLQPEDFATYYCQQYSSYPLTFGQGTKVEIK

One test concerns the target T1, human MAdCAM expressed on cells (human, UniProt Q13477 19-382).
T1 construct: whole, on cells
T1 sequence (looked up): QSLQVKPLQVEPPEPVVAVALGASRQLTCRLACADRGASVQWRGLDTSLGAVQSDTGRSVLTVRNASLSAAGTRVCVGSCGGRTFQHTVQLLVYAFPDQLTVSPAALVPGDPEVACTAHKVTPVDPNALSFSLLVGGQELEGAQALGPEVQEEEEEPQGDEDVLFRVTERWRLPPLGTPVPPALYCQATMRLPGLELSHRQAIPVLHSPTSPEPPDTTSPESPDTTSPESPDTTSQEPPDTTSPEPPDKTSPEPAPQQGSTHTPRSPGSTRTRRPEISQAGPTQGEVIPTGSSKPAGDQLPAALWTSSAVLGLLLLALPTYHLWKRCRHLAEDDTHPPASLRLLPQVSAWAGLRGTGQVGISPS
Briefly: cell binding.
On to B1, for which the binding result is recorded as “binds”.
Still for that read-out and setting: for B2 the value was “binds”; for B3, “binds”.
With B4, the binding result is on record as “binds”.
Same read-out and setting: for B5 the value was “binds”; for B6, “binds”.
Same read-out and setting: the same measure for B7: “binds”.
The same measure, in the same setting: for B8 the value was “binds”; for B9, “binds”.
Turning to B10, the binding result is reported as “binds”.
Take B11: the binding result is on record as “binds”.
Still for that read-out and setting: for B12 the value was “binds”; for B13, “binds”; for B14, “binds”.
For B15, the binding result is on record as “binds”.
Still for that read-out and setting: for B16 the value was “binds”.

A further test addresses T2, mouse MAdCAM expressed on cells (mouse, UniProt Q61826 22-405).
T2 construct: whole, on cells
T2 sequence (looked up): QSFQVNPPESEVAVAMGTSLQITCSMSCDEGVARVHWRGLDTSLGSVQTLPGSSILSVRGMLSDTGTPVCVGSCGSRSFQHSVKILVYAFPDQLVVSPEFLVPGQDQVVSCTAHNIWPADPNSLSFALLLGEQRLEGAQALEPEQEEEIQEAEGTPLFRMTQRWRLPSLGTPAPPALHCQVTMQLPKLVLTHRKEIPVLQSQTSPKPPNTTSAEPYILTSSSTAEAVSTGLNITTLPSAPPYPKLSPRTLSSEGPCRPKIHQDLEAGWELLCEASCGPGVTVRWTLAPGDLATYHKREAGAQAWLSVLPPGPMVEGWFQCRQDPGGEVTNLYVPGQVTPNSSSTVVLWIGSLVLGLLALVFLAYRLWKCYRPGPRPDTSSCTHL
Description: cell binding.
In the case of B1, the binding result was “no binding”.
Still for that read-out and setting: for B2 the value was “no binding”; for B3, “no binding”.
Same read-out and setting: for B4 the value was “no binding”; for B5, “no binding”.
The same measure, in the same setting: the same measure for B6: “no binding”; for B7: “no binding”; for B8: “no binding”.
In the case of B9, the binding result is given as “no binding”.
The same measure, in the same setting: for B10 the value was “no binding”; for B11, “no binding”; for B12, “no binding”.
For the molecule B13, the binding result is “no binding”.
The same measure, in the same setting: for B14 the value was “binds”.
The same measure, in the same setting: the same measure for B15: “no binding”; for B16: “no binding”.

For the origin of these results see US20230235004A1 (published 2023).
